Results published in the supplement of paper PMC7125110.
± gives the standard error. Fewer inactive variants are shown than the library holds.

B1: glmS ribozyme (parent)
chain: AUAAAAGCGCCAGAACUACAGAAAUGUAGUUGACGAGGAGGAGGUUUAUCGAAUUUUCGGCGGAUGCCUCCAAA

Assays:
Conditions in all cases: with glucosamine-6-phosphate
glucosamine-6-phosphate [1] = variants of: B1; test: self-cleavage kobs at 40 uM GlcN6P; higher = faster cleavage; RNA array
In short: (§1)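 Barcoded ribozyme variants were transcribed in situ on sequenced MiSeq chips by E. coli RNA polymerase. At 37 °C, a hybridised Cy3 probe tracked them while glucosamine-6-phosphate (40 μM to 10 mM) in HEPES/KCl/Mg(OAc)2 buffer flowed in and tiles were imaged over ~14 h. Per-tile medians of signals normalised to baseline and to non-cleaving reference variants were fit to one- or two-exponential decays, giving kobs. kcat and KM came from weighted Michaelis–Menten fits across concentrations.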

glucosamine-6-phosphate [2] = variants of: B1; test: self-cleavage kobs at 10000 uM GlcN6P; higher = faster cleavage; RNA array
In short: as §1

glucosamine-6-phosphate [3] = variants of: B1; test: self-cleavage kobs at 160 uM GlcN6P; higher = faster cleavage; RNA array
In short: as §1

glucosamine-6-phosphate [4] = variants of: B1; test: self-cleavage kobs at 640 uM GlcN6P; higher = faster cleavage; RNA array
In short: as §1

glucosamine-6-phosphate [5] = variants of: B1; test: self-cleavage kobs at 2500 uM GlcN6P; higher = faster cleavage; RNA array
In short: as §1

| Variant | self-cleavage kobs at 40 uM GlcN6P (glucosamine-6-phosphate [1]) [s⁻¹] | self-cleavage kobs at 10000 uM GlcN6P (glucosamine-6-phosphate [2]) [s⁻¹] | self-cleavage kobs at 160 uM GlcN6P (glucosamine-6-phosphate [3]) [s⁻¹] | self-cleavage kobs at 640 uM GlcN6P (glucosamine-6-phosphate [4]) [s⁻¹] | self-cleavage kobs at 2500 uM GlcN6P (glucosamine-6-phosphate [5]) [s⁻¹] |
| --- | --- | --- | --- | --- | --- |
| G9A U47G A48U | < 1e-05 |  |  |  |  |
| C10U U47A G62U A64U U69A | < 1e-05 |  |  |  |  |
| G51C C61U | < 1e-05 |  |  |  |  |
| U31C G44U U56C | < 1e-05 |  |  |  |  |
| A6C U30G C50G U56C C68A | 7.1e-05 ± 2.5e-05 | 0.000356 ± 0.00016 |  |  |  |
| G35A U65A | < 1e-05 | < 1e-05 | < 1e-05 | < 1e-05 | < 1e-05 |
| C10A G37U A42U C67G C68G | 7.19e-05 ± 2e-05 |  |  |  |  |
| A15U G60A C61A G66U | < 1e-05 |  |  |  |  |
| G43A A64U | < 1e-05 | < 1e-05 | < 1e-05 | < 1e-05 | < 1e-05 |
| C34G G44C | < 1e-05 | < 1e-05 |  | < 1e-05 | < 1e-05 |
| U45C C58U | < 1e-05 |  | < 1e-05 | < 1e-05 | < 1e-05 |
| G32U A36G | < 1e-05 | < 1e-05 | < 1e-05 | < 1e-05 | < 1e-05 |
| A14G U56C C61G | < 1e-05 | < 1e-05 |  |  |  |
| C8G A14C | < 1e-05 | < 1e-05 | < 1e-05 | < 1e-05 | < 1e-05 |
| C10U A39U G43C | < 1e-05 | < 1e-05 |  |  |  |
| A52G U57A G66U | < 1e-05 | 3.15e-05 ± 1.6e-05 |  |  |  |
| A14C C16G C50G | 8.94e-05 ± 3.4e-05 |  |  |  |  |
| C10A A52U U56G | < 1e-05 | < 1e-05 | < 1e-05 | < 1e-05 | < 1e-05 |
| C19A G29U C58A C67G | 3.09e-05 ± 1.3e-05 | 6.68e-05 ± 1.4e-05 |  |  |  |
| G7U G32C | < 1e-05 | < 1e-05 |  | < 1e-05 | < 1e-05 |
| U30C U49A | < 1e-05 |  | < 1e-05 | < 1e-05 |  |
| C16G G35A U56G G63C | < 1e-05 | < 1e-05 |  |  |  |
| U56G C67U | 0.000109 ± 1.2e-05 | 0.00538 ± 0.00085 | 0.000258 ± 4.6e-05 | 0.00135 ± 0.00015 | 0.00142 ± 0.00022 |
